± gives the standard deviation of the averaged measurements.
System: ATP
Assay: switch fluorescence ratio, 500 uM ATP over buffer (Cy3 cluster intensity, sum of 5 cycles each) (fold (ratio)); higher = stronger signal-on switching upon ATP binding; sequences stand for … in TCGTCGGCAGCGTCAGATGTGTATAAGAGACAGTTTTTTTTTTTTTTTTTTTTTTTTT…TC
Conditions: aptamer strand: ATP DNA aptamer (quencher-CACCTGGGGGAGTATTGCGGAGGAAGG + anchor), 100 nM annealed; ATP concentration: 500 uM
Procedure, shortened: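 Clusters carrying Cy3-labelled switching strands on a modified Illumina MiSeq flow-cell were annealed to 100 nM quencher-labelled ATP aptamer and imaged in selection buffer. They were imaged again after 15 min with 500 uM ATP at 22 °C, over five buffer/ATP cycles with NaOH stripping and re-annealing in between. For each cluster, the fluorescence ratio is the summed Cy3 intensity of the target cycles divided by that of the buffer cycles, averaged per switch-domain sequence. Clusters outside 100-1000 RFU were left out.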
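Note: ATP exposure 15 min at 22 °C before imaging.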

For TGTGATATAT, the switch fluorescence ratio was 0.9877 ± 0.0011.
For TGTGATGATG, the switch fluorescence ratio was 0.947 ± 0.036.
With TGTGATTGGG the switch fluorescence ratio was 0.988 ± 0.017.
For TGTGATTTTT, the switch fluorescence ratio was 1.01 ± 0.028.
TGTGCACATT gave a switch fluorescence ratio of 1.02 ± 0.024.
TGTGCAGCG was tested, and the switch fluorescence ratio was 1.02 ± 0.022.
With TGTGCGACCT the switch fluorescence ratio was 1.16 ± 0.043.
Work on TGTGCGGGGG yielded a switch fluorescence ratio of 1.02 ± 0.019.
Work on TGTGCGGGTT yielded a switch fluorescence ratio of 1.02 ± 0.02.
Work on TGTGCTATTG yielded a switch fluorescence ratio of 0.983 ± 0.058.
With TGTGGAAAAT the switch fluorescence ratio was 1.03 ± 0.074.
For TGTGGAAAGG, the switch fluorescence ratio was 1 ± 0.014.
TGTGGCAGGT gave a switch fluorescence ratio of 0.982 ± 0.031.
For TGTGGCCGGG, the switch fluorescence ratio was 0.998 ± 0.024.
Work on TGTGGCCGTT yielded a switch fluorescence ratio of 1.03 ± 0.059.
TGTGGGAAAT was tested, and the switch fluorescence ratio was 0.988 ± 0.016.
For TGTGGGATGG, the switch fluorescence ratio was 1 ± 0.028.
For TGTGGGCTGG, the switch fluorescence ratio was 1.02 ± 0.012.
Work on TGTGGGGCCA yielded a switch fluorescence ratio of 0.96 ± 0.038.
TGTGGGGCTG gave a switch fluorescence ratio of 1.02 ± 0.08.
TGTGGGGGAG showed a switch fluorescence ratio of 1.03 ± 0.035.
TGTGGGGGGA was tested, and the switch fluorescence ratio was 0.983 ± 0.037.
Sequence TGTGGGGTTG has a switch fluorescence ratio of 0.994 ± 0.033.
Work on TGTGGGTAAA yielded a switch fluorescence ratio of 1.01 ± 0.042.
TGTGGGTCCG was tested, and the switch fluorescence ratio was 1 ± 0.036.
For TGTGGTGGAG, the switch fluorescence ratio was 0.9617 ± 0.0071.
In the case of TGTGGTGGTG, the switch fluorescence ratio is reported as 0.978 ± 0.049.
With TGTGGTTGGG the switch fluorescence ratio was 0.989 ± 0.027.
TGTGTAAAGG gave a switch fluorescence ratio of 1.04 ± 0.042.
In the case of TGTGTAAGGC, the switch fluorescence ratio is reported as 1.03 ± 0.038.
For TGTGTAGTTG, the switch fluorescence ratio was 0.9821 ± 0.0042.
For TGTGTATGGG, the switch fluorescence ratio was 1.19 ± 0.28.
TGTGTATTCC gave a switch fluorescence ratio of 1.05 ± 0.037.
With TGTGTGAGAA the switch fluorescence ratio was 0.997 ± 0.022.
With TGTGTGCAAT the switch fluorescence ratio was 1.0784 ± 0.001.
With TGTGTGGCGT the switch fluorescence ratio was 1.003 ± 0.0042.
For TGTGTGGGTT, the switch fluorescence ratio was 1.01 ± 0.035.
Sequence TGTGTGTATG has a switch fluorescence ratio of 0.999 ± 0.036.
TGTGTTAAAT gave a switch fluorescence ratio of 1.04 ± 0.011.
In the case of TGTGTTGCCT, the switch fluorescence ratio is reported as 1.05 ± 0.015.
In the case of TGTGTTGGGG, the switch fluorescence ratio is reported as 0.969 ± 0.024.
TGTGTTGTTT gave a switch fluorescence ratio of 1 ± 0.044.
In the case of TGTGTTTTCG, the switch fluorescence ratio is reported as 1 ± 0.014.
For TGTTAAACGC, the switch fluorescence ratio was 0.945 ± 0.03.
TGTTAAAGGG gave a switch fluorescence ratio of 1.03 ± 0.024.
TGTTAAAGTT was tested, and the switch fluorescence ratio was 0.9908 ± 0.0045.
TGTTAAATTT was tested, and the switch fluorescence ratio was 1.01 ± 0.045.
TGTTAATCTG was tested, and the switch fluorescence ratio was 0.994 ± 0.021.
TGTTAATGTT gave a switch fluorescence ratio of 1 ± 0.029.
TGTTACCGG showed a switch fluorescence ratio of 1.004 ± 0.0037.
TGTTACGGGG gave a switch fluorescence ratio of 0.98654 ± 0.00045.
With TGTTACTTAT the switch fluorescence ratio was 1.05 ± 0.016.
For TGTTAGGGGG, the switch fluorescence ratio was 1.01 ± 0.014.
Sequence TGTTAGGGTG has a switch fluorescence ratio of 1.04 ± 0.033.
TGTTAGTCTG gave a switch fluorescence ratio of 1.03 ± 0.032.
Sequence TGTTAGTTAC has a switch fluorescence ratio of 1.03 ± 0.025.
TGTTAGTTAT showed a switch fluorescence ratio of 1.06 ± 0.066.
TGTTAGTTGG gave a switch fluorescence ratio of 1.004 ± 0.0038.
In the case of TGTTATAATT, the switch fluorescence ratio is reported as 1 ± 0.0048.
With TGTTATAGCC the switch fluorescence ratio was 1.03 ± 0.04.
For TGTTATATAG, the switch fluorescence ratio was 1.01 ± 0.033.
TGTTATTGAT showed a switch fluorescence ratio of 1.02 ± 0.029.
TGTTATTGGC showed a switch fluorescence ratio of 1.08 ± 0.084.
Sequence TGTTATTTTG has a switch fluorescence ratio of 0.989 ± 0.041.
TGTTCAGGGA was tested, and the switch fluorescence ratio was 1.048 ± 0.0073.
Sequence TGTTCGGGTG has a switch fluorescence ratio of 1.05 ± 0.022.
Work on TGTTCGTCGT yielded a switch fluorescence ratio of 0.9693 ± 0.0039.
With TGTTCTACAG the switch fluorescence ratio was 1 ± 0.02.
Sequence TGTTCTCAAA has a switch fluorescence ratio of 0.98346 ± 0.00079.
For TGTTCTTTTT, the switch fluorescence ratio was 0.993 ± 0.038.
For TGTTGACAGT, the switch fluorescence ratio was 1.01 ± 0.021.
In the case of TGTTGACTGA, the switch fluorescence ratio is reported as 1.02 ± 0.023.
In the case of TGTTGAGTAT, the switch fluorescence ratio is reported as 0.9738 ± 0.0072.
For TGTTGGACTA, the switch fluorescence ratio was 0.9992 ± 0.0065.
With TGTTGGAGCG the switch fluorescence ratio was 0.969 ± 0.011.
TGTTGGAGGA was tested, and the switch fluorescence ratio was 0.994 ± 0.028.
TGTTGGAGGC was tested, and the switch fluorescence ratio was 0.9713 ± 0.0072.
TGTTGGCCGG was tested, and the switch fluorescence ratio was 0.991 ± 0.026.
With TGTTGGCTTT the switch fluorescence ratio was 1.06 ± 0.022.
TGTTGGGAGA gave a switch fluorescence ratio of 1 ± 0.025.
For TGTTGGGGCG, the switch fluorescence ratio was 1.02 ± 0.069.
TGTTGGGGGG gave a switch fluorescence ratio of 1.01 ± 0.057.
For TGTTGGGGGT, the switch fluorescence ratio was 0.962 ± 0.034.
Work on TGTTGGGGTT yielded a switch fluorescence ratio of 1.01 ± 0.018.
Work on TGTTGGGTGC yielded a switch fluorescence ratio of 0.996 ± 0.037.
Work on TGTTGGTGTC yielded a switch fluorescence ratio of 0.987 ± 0.07.
In the case of TGTTGGTTCG, the switch fluorescence ratio is reported as 0.97 ± 0.062.
With TGTTGTAATG the switch fluorescence ratio was 0.9974 ± 0.0033.
With TGTTGTATGC the switch fluorescence ratio was 0.9617 ± 0.0042.
Work on TGTTGTATTG yielded a switch fluorescence ratio of 0.9761 ± 0.0066.
Work on TGTTGTGGGA yielded a switch fluorescence ratio of 0.979 ± 0.019.
TGTTGTGTAG gave a switch fluorescence ratio of 0.977 ± 0.021.
In the case of TGTTGTTTGC, the switch fluorescence ratio is reported as 0.982 ± 0.014.
In the case of TGTTGTTTGG, the switch fluorescence ratio is reported as 1 ± 0.063.
For TGTTTAAAAT, the switch fluorescence ratio was 1.02 ± 0.046.
TGTTTAAATG was tested, and the switch fluorescence ratio was 1.01 ± 0.026.
For TGTTTAAGTT, the switch fluorescence ratio was 1.02 ± 0.023.
TGTTTAATGT gave a switch fluorescence ratio of 1.01 ± 0.019.
In the case of TGTTTACAGC, the switch fluorescence ratio is reported as 0.997 ± 0.027.
In the case of TGTTTATATC, the switch fluorescence ratio is reported as 0.9856 ± 0.0076.

From the supplement of paper PMC10126150
